Biological target: B7-H3 on CHO-K1 cells stably transfected with B7-H3 (GenScript #M00536) (UniProt Q5ZPR3)
Experiment: cell-based or functional assay

Chain of B7-H3 on CHO-K1 cells stably transfected with B7-H3 (GenScript #M00536) (Q5ZPR3 29-534 limits assumed): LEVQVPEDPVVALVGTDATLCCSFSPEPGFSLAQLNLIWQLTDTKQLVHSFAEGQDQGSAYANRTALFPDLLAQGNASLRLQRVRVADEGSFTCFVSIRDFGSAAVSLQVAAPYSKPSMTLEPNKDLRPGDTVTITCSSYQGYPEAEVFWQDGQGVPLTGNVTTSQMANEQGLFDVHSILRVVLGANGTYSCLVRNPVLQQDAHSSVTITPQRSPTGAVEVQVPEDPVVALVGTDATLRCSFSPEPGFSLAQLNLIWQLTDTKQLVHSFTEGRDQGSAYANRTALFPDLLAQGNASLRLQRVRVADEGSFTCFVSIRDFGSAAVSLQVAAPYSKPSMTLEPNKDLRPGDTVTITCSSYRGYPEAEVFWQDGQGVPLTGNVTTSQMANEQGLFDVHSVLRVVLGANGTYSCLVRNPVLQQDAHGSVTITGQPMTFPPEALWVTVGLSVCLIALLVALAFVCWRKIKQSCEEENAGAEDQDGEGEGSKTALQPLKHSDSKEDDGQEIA

Benchmark MGA-271 (antibody) showed an ADCC reporter assay, EC50 Value, CHOK1/B7-H3 cells of 4.55 µg/mL and an ADCC reporter assay, Max RLU, CHOK1/B7-H3 cells of 162000 RLU.
